Assay results from publication PMC4220969, “Structural basis for the recognition of muramyltripeptide by Helicobacter pylori Csd4, a D,L-carboxypeptidase controlling the helical cell shape” (Acta Crystallographica Section D: Biological Crystallography, 2014).
Where no end group is shown, it is not given here. [ ]: non-standard residue; d: D form. The star is where a group is joined. FITC = O=C1OC2(c3ccc(O)cc3Oc3cc(O)ccc32)c2ccc(NC(=S)*)cc21

Key:
Csd5 = target: T1, Csd5 (Helicobacter pylori, UniProt O25843); assay: fluorescence polarization; format: binding; conditions: labelled compound; 9.2 nM FITC-dipeptide, 10 mM HEPES pH 7.5, 100 mM NaCl
T1 construct: gene HP_1250

[1] = target: FITC-labelled dipeptide (FITC-L-Ala-D-Glu); assay: fluorescence polarisation; FITC-labelled dipeptide at 9.2 nM, Csd5 titrated from 17.0 nM to 17.4 µM, 10 mM HEPES pH 7.5, 100 mM sodium chloride
[2] = target: T2, Helicobacter pylori Csd4 (HP1075 in strain 26695), recombinant, residues Met22-Val438 (Helicobacter pylori strain 26695, UniProt O25708 22-438); assay: SPR; as a1, EDTA-treated Csd4-immobilised chip retreated with running buffer containing 5 mM calcium chloride; conditions: both partners purified
T2 construct: Csd4 (HP1075) from H. pylori strain 26695, residues Met22-Val438; the N-terminal 19 residues are a predicted signal peptide and are not in the construct; No cleavage of the tag is described; also called D,L-carboxypeptidase; source: E. coli Rosetta2(DE3), purified (HiTrap Chelating HP, HiTrap SP HP, Superdex 200)
T2 sequence (looked up): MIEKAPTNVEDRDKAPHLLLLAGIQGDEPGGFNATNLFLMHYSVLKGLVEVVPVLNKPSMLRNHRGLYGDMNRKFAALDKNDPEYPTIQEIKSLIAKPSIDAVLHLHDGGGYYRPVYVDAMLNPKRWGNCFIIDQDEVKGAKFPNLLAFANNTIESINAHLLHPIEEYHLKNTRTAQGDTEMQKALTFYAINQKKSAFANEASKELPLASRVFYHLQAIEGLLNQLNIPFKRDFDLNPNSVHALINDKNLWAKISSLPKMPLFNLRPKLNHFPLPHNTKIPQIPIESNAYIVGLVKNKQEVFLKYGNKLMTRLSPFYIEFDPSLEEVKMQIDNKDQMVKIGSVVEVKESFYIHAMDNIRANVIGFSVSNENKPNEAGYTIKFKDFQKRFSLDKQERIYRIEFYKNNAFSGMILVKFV

[3] = target: T2, Helicobacter pylori Csd4 (HP1075 in …); assay: SPR; Csd4 immobilised by amine coupling on a carboxymethyl dextran chip, Csd5 as analyte (0.25-2.00 µM), 10 mM HEPES pH 7.5, 100 mM sodium chloride, 25°C; BSA reference subtracted; conditions: both partners purified

## {FITC}-Ala-[dE]
Csd5
  Kd: ~1690 nM

## Helicobacter pylori Csd5 (HP1250 in strain 26695), N-terminal 40-residue-truncated construct, residues Ser41-Glu192 (from UniProt O25843 41-192) (domain or fragment)
[1]
  Kd: 1690 nM

B1: Helicobacter pylori Csd5 (HP1250 in strain 26695), N-terminal 40-residue-truncated construct, residues Ser41-Glu192 (domain or fragment, Helicobacter pylori strain 26695, UniProt O25843 41-192, looked up)
chain: SAPISPNVEKTETERQNGVLSPKQEEANATTTATEESPTKDTAPPLDTAAQKQETKQEQEKENEPKQDSVPPVQNNQKTPTTPLMGKKPLEYKVAVSGVNVRAFPSTKGKILGLLLKNKSVKVLEIQNDWAEIEFSHETKGYVFLKLLKKAE
notes: Csd5 (HP1250) from H. pylori strain 26695, residues Ser41-Glu192; lacks the predicted transmembrane region (Pro15-Val37); No cleavage of the tag is described; source: E. coli, overexpressed and purified essentially as Csd4 (gel filtration in 10 mM HEPES pH 7.5, 100 mM sodium chloride)
[2]
  Kd: ~4300 nM
[3]
  Kd: ~4500 nM
